Data from patent publication US5817490A, “Enzymatic process for the manufacture of ascorbic acid 2-keto-L-gulonic acid and esters of 2-keto-L-gulonic acid” (Eastman Chemical Company, priority 1997, dated 1998).
Where two headings read alike, the source gives them in different places. Blank lines part the entries; values can stand above or below the molecule they belong to.

Legend:
[1] = format: physicochemical
Method: HPLC sample standards were prepared by dissolving KLG, MeKLG, ascorbic acid (ASA), and butyl-KLG to the appropriate concentration in water. Samples of these standards were placed in filled and sealed vials, stored at room temperature, and analyzed periodically. The HPLC was calibrated on the area response for standards that were injected onto the HPLC as soon as possible after the preparation of the standards.

[2] = solubility of butyl-KLG in water; format: physicochemical
Text: The recrystallized butyl-KLG of this example had satisfactory proton and carbon NMR spectra and gave the predicted molecular weight by field desorption mass spectrometry.

[3] = enzyme screen for hydrolysis/methanolysis of butyl-KLG (HPLC of products and remaining substrate); format: biochemical; parameters: KLG formed / MeKLG formed / ASA formed / BuKLG (remaining substrate): unit: ppm
Method: (§1) Initial enzyme screens were carried out as follows. Enzyme (typically 10 mg), aqueous buffer (typically 860 microliters (ul) or 550 ul), aqueous 0.2M CaCl2 (10 ul), methanol (typically 90 ul or 400 ul), and an aqueous solution of substrate (typically 90 ul of butyl-KLG at a typical concentration of 110,000 ppm) were added to a 2 ml polypropylene centrifuge tube. The resulting solution was vortexed briefly and placed on a shaker bath at 300 rpm at 38° C. (typically for 18 hours or more). After incubation, samples were centrifuged at 14,000 G's (14,000 times gravity) for 20 minutes to remove enzyme, sampled (300 ul), and diluted to one milliliter with distilled water. If not analyzed by HPLC within the day, samples were frozen prior to analysis.
The data were reported in terms of parts per million of KLG, MeKLG, ascorbic acid (ASA) and butyl-KLG. […] Samples labeled as "no enzyme" were controls within a given run. The controls contained substrate but no enzyme and thus represented experimental and HPLC background data.

[4] = enzyme screen for methanolysis of KLG; format: biochemical; parameters: unit not given here; conditions: Table 14: 38° C., 19 Hours, 8.6% Methanol-Water, 0.2M MES Buffer
Method: as §1

[5] = Example 4: 38% methanol-water, MES, pH 5 to 5.8
[6] = Example 8: 8.6% methanol-water, MES, pH approximately 5.8 to 6.2
[7] = Example 9: 8.6% methanol-water, 0.2M MES
[8] = Table 3: 38° C., 16 Hours, 38% Methanol-Water, 0.1M MES Buffer
[9] = Table 4: 38° C., 47.5 Hours, 38% Methanol-Water, 0.1M MES Buffer
[10] = Table 7: 38° C., 19 Hours, 8.6% Methanol-Water, 0.1M MES
[11] = Table 8: 38° C., 21 Hours, 8.6% Methanol-Water, 0.2 M MES
[12] = Table 9: 38° C., 19 Hours, 8.6% Methanol-Water, 0.2M MES Buffer
[13] = Table 10: 38° C., 19 Hours, 38% Methanol-Water, 0.2M MES Buffer
[14] = Table 11: 38° C., ca. 19 Hours, 8.6% Methanol-Water, 0.2M Pyridine/Pyridinium Hydrochloride
[15] = Table 12: 38° C., ca. 19 Hours, 38% Methanol-Water, 0.2M pyridine buffer, pH 4.7 to 5.1
[16] = Table 13: 38° C., 20 Hours, 8.6% Methanol-Water, pH 2.3, 0.2M Phosphate Buffer

Amount Found ([1]; 50 ppm standard, 0 minutes): 51 ppm
Amount Found ([1]; 50 ppm standard, 400 minutes): 39.9 ppm
Amount Found ([1]; 50 ppm standard, 715 minutes): 52 ppm
Amount Found ([1]; 100 ppm standard, 0 minutes): 102 ppm
Amount Found ([1]; 100 ppm standard, 400 minutes): 94.3 ppm
Amount Found ([1]; 100 ppm standard, 715 minutes): 81.8 ppm
Amount Found ([1]; 500 ppm standard, 0 minutes): 510 ppm
Amount Found ([1]; 500 ppm standard, 400 minutes): 479 ppm
Amount Found ([1]; 500 ppm standard, 715 minutes): 493 ppm
Molecule: O=C(O)C(=O)[C@@H](O)[C@H](O)[C@@H](O)CO [KLG, 2-keto-L-gulonic acid]

Amount Found ([1]; 50 ppm standard, 0 minutes): 51.4 ppm
Amount Found ([1]; 50 ppm standard, 400 minutes): 47.7 ppm
Amount Found ([1]; 50 ppm standard, 715 minutes): 43 ppm
Amount Found ([1]; 100 ppm standard, 0 minutes): 103 ppm
Amount Found ([1]; 100 ppm standard, 400 minutes): 106.8 ppm
Amount Found ([1]; 100 ppm standard, 715 minutes): 90.2 ppm
Amount Found ([1]; 500 ppm standard, 0 minutes): 514 ppm
Amount Found ([1]; 500 ppm standard, 400 minutes): 496 ppm
Amount Found ([1]; 500 ppm standard, 715 minutes): 495 ppm
Molecule: COC(=O)C(=O)[C@@H](O)[C@H](O)[C@@H](O)CO [MeKLG, methyl-2-keto-L-gulonate]

Amount Found ([1]; 50 ppm standard, 0 minutes): 50.6 ppm
Amount Found ([1]; 50 ppm standard, 400 minutes): 42.7 ppm
Amount Found ([1]; 50 ppm standard, 715 minutes): 38.2 ppm
Amount Found ([1]; 100 ppm standard, 0 minutes): 101 ppm
Amount Found ([1]; 100 ppm standard, 400 minutes): 100.1 ppm
Amount Found ([1]; 100 ppm standard, 715 minutes): 94.2 ppm
Amount Found ([1]; 500 ppm standard, 0 minutes): 506 ppm
Amount Found ([1]; 500 ppm standard, 400 minutes): 512 ppm
Amount Found ([1]; 500 ppm standard, 715 minutes): 499 ppm
solubility [2]: ≥ 500 mg/mL
Molecule: CCCCOC(=O)C(=O)[C@@H](O)[C@H](O)[C@@H](O)CO [butyl-KLG, butyl 2-keto-L-gulonate]

selectivity (transesterification) [3, 7]: selectivity toward transesterification
ASA formed [3, 8]: 294 ppm
KLG formed [3, 8]: 446 ppm
MeKLG formed [3, 8]: 4377 ppm
ASA formed [3, 9]: 246 ppm
KLG formed [3, 9]: 705 ppm
MeKLG formed [3, 9]: 2720 ppm
ASA formed [3, 10]: 423
KLG formed [3, 10]: 2726
MeKLG formed [3, 10]: 3731
ASA formed [3, 11]: 717 ppm
KLG formed [3, 11]: 2373 ppm
MeKLG formed [3, 11]: 4167 ppm
ASA formed [3, 12]: 650 ppm
KLG formed [3, 12]: 1947 ppm
MeKLG formed [3, 12]: 4258 ppm
ASA formed [3, 13]: 173 ppm
KLG formed [3, 13]: 203 ppm
MeKLG formed [3, 13]: 1654 ppm
ASA formed [3, 14]: 37 ppm
KLG formed [3, 14]: 1613 ppm
MeKLG formed [3, 14]: 5787 ppm
ASA formed [3, 15]: 0
KLG formed [3, 15]: 47
MeKLG formed [3, 15]: 197
ASA formed [3, 16]: 0
KLG formed [3, 16]: 417
MeKLG formed [3, 16]: 93
ASA formed [4]: 0
BuKLG [4]: 0
MeKLG formed [4]: 0
B1: Pig Liver Esterase: pig liver esterase (a hydrolase) (protein)
chain: MWLLPLVLTSLASSATWAGQPASPPVVDTAQGRVLGKYVSLEGLAFTQPVAVFLGVPFAKPPLGSLRFAPPQPAEPWSFVKNTTSYPPMCCQDPVVEQMTSDLFTNFTGKERLTLEFSEDCLYLNIYTPADLTKRGRLPVMVWIHGGGLVLGGAPMYDGVVLAAHENFTVVVVAIQYRLGIWGFFSTGDEHSRGNWGHLDQVAALHWVQENIANFGGDPGSVTIFGESFTAGGESVSVLVLSPLAKNLFHRAISESGVALTVALVRKDMKAAAKQIAVLAGCKTTTSAVFTFVHCLRQKSEDELLDLTLKMKFLTLDFHGDQRESHPFLPTVVDGVLLPKMPEEILAEKDFTFNTVPYIVGINKQEFGWLLPTMMGFPLSEGKLDQKTATSLLWKSYPIANIPEELTPVATFTDKYLGGTDDPVKKKDLFLDLMGDVVFGVPSVTVARQHRDAGAPTYMYEFQYRPSFSSDKFTKPKTVIGDHGDEIFSVFGFPLLKGDAPEEEVSLSKTVMKFWANFARSGNPNGEGLPHWPFTMYDQEEGYLQIGVNTQAAKRLKGEEVAFWNDLLSKEAAKKPPKIKHAEL
levels of activity / conversion of butyl-KLG ([3]; Example 3: 38% methanol-water, MES, pH 4.8 to 5.8): particularly high levels of activity
levels of activity / conversion of butyl-KLG [3, 5]: particularly high levels of activity
levels of activity / conversion of butyl-KLG ([3]; Example 7: 8.6% methanol-water, MES, pH approximately 5 to 6): particularly high levels of activity
levels of activity / conversion of butyl-KLG [3, 6]: particularly high levels of activity
conversions to ascorbic acid [3, 7]: significant conversions to ascorbic acid
levels of activity / conversion of butyl-KLG ([3]; Example 9: 8.6% methanol-water, 0.2M MES, pH approximately 5.6 to 6): particularly high levels of activity
levels of activity / conversion of butyl-KLG ([3]; Example 10: 38% methanol-water, 0.2M MES, pH approximately 5.6 to 6.2): Decreased, although still appreciable, activity
levels of activity / conversion of butyl-KLG ([3]; Example 11: 8.6% methanol-water, pyridine buffer, pH approximately 4.9 to 5.3): particularly high levels of activity
BuKLG (remaining substrate) [3, 8]: 5711 ppm
BuKLG (remaining substrate) [3, 9]: 1368 ppm
BuKLG (remaining substrate) [3, 10]: 10
BuKLG (remaining substrate) [3, 11]: 83 ppm
BuKLG (remaining substrate) [3, 12]: 0 ppm
BuKLG (remaining substrate) [3, 13]: 7030 ppm
BuKLG (remaining substrate) [3, 14]: 390 ppm
BuKLG (remaining substrate) [3, 15]: 11750
BuKLG (remaining substrate) [3, 16]: 9500
KLG (remaining substrate) [4]: 4393

ASA formed [3, 8]: 3 ppm
KLG formed [3, 8]: 194 ppm
MeKLG formed [3, 8]: 642 ppm
ASA formed [3, 9]: 54 ppm
KLG formed [3, 9]: 3744 ppm
MeKLG formed [3, 9]: 1724 ppm
ASA formed [3, 10]: 135
KLG formed [3, 10]: 2860
MeKLG formed [3, 10]: 1233
ASA formed [3, 11]: 6 ppm
KLG formed [3, 11]: 4293 ppm
MeKLG formed [3, 11]: 1282 ppm
ASA formed [3, 12]: 215 ppm
KLG formed [3, 12]: 3485 ppm
MeKLG formed [3, 12]: 1235 ppm
ASA formed [3, 13]: 102 ppm
KLG formed [3, 13]: 1261 ppm
MeKLG formed [3, 13]: 1693 ppm
ASA formed [3, 14]: 67 ppm
KLG formed [3, 14]: 987 ppm
MeKLG formed [3, 14]: 1360 ppm
ASA formed [3, 15]: 7
KLG formed [3, 15]: 97
MeKLG formed [3, 15]: 447
ASA formed [3, 16]: 0
KLG formed [3, 16]: 387
MeKLG formed [3, 16]: 0
ASA formed [4]: 0
BuKLG [4]: 0
MeKLG formed [4]: 0
B2: ChiroCLEC-BL (Dry): crystalline crosslinked enzyme, a crystalline form of Subtilisin (a protease) (Altus Biologics) (protein, UniProt P00780 106-379, looked up)
Subtilisin Carlsberg: AQTVPYGIPLIKADKVQAQGFKGANVKVAVLDTGIQASHPDLNVVGGASFVAGEAYNTDGNGHGTHVAGTVAALDNTTGVLGVAPSVSLYAVKVLNSSGSGSYSGIVSGIEWATTNGMDVINMSLGGASGSTAMKQAVDNAYAKGVVVVAAAGNSGSSGNTNTIGYPAKYDSVIAVGAVDSNSNRASFSSVGAELEVMAPGAGVYSTYPTNTYATLNGTSMASPHVAGAAALILSKHPNLSASQVRNRLSSTATYLGSSFYYGKGLINVEAAAQ
modifications: crystalline cross-linked enzyme
levels of activity / conversion of butyl-KLG [3, 5]: particularly high levels of activity
levels of activity / conversion of butyl-KLG [3, 6]: particularly high levels of activity
BuKLG (remaining substrate) [3, 8]: 5123 ppm
BuKLG (remaining substrate) [3, 9]: 634 ppm
BuKLG (remaining substrate) [3, 10]: 4051
BuKLG (remaining substrate) [3, 11]: 1376 ppm
BuKLG (remaining substrate) [3, 12]: 3045 ppm
BuKLG (remaining substrate) [3, 13]: 5572 ppm
BuKLG (remaining substrate) [3, 14]: 5603 ppm
BuKLG (remaining substrate) [3, 15]: 10950
BuKLG (remaining substrate) [3, 16]: 10580
KLG (remaining substrate) [4]: 3270
